# Literature values in paper PMC6005658.
# Molecular target: arodyn (1)
# Experiment: radioligand binding
# Sequence of κ opioid receptor (P34975 whole entry): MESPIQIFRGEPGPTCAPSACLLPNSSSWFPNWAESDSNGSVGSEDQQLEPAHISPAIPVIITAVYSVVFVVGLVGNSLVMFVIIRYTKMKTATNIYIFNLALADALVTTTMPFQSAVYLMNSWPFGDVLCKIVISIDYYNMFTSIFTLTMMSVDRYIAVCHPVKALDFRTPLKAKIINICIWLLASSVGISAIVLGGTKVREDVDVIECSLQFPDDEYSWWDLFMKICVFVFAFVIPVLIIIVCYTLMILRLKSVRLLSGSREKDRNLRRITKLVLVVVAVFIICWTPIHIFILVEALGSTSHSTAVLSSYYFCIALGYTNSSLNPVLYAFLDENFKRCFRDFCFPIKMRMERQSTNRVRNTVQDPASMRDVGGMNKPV
# Sequence of μ opioid receptor (P33535 whole entry): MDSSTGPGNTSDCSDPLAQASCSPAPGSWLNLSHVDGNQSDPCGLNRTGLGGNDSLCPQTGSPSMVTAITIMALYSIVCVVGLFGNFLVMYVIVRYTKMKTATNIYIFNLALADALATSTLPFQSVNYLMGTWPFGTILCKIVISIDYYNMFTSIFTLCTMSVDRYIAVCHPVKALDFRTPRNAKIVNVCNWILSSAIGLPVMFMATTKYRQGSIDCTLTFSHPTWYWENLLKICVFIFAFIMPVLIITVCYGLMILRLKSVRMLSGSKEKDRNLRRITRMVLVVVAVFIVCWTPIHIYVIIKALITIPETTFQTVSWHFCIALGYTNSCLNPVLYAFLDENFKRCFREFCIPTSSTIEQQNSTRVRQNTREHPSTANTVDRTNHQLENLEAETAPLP
row,Substance,Ki
1,μ opioid receptor (from UniProt P33535),1.75 µM
2,κ opioid receptor (from UniProt P34975),0.01 µM
